Source: patent publication US20180369326A1 (LA JOLLA INSTITUTE FOR ALLERGY AND IMMUNOLOGY, published 2018)

T1: TANK-binding kinase 1 (TBK1), endogenous, mouse primary CD4+ T cells (mouse, UniProt Q9WUN2 1-729)
T1 construct: also called endogenous TBK1
T1 sequence (looked up): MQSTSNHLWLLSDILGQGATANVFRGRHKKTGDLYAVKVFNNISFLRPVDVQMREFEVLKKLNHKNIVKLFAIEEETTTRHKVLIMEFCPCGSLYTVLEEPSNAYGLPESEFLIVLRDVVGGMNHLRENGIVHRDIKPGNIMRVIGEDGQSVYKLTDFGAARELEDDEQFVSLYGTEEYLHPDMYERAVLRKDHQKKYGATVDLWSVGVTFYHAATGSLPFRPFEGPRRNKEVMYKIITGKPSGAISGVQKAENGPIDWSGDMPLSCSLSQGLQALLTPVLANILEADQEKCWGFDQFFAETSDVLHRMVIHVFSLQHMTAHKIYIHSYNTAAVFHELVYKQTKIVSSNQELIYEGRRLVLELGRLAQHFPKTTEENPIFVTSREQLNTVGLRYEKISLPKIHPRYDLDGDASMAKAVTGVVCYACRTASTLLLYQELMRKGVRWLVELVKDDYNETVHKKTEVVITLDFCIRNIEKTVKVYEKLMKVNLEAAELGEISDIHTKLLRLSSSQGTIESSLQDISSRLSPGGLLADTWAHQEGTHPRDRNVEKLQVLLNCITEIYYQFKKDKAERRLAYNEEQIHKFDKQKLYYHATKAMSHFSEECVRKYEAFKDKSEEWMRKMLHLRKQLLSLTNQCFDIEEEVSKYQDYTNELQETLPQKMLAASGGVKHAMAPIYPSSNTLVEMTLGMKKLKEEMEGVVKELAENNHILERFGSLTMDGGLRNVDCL

T2: IKKϵ, endogenous, mouse primary CD4+ T cells (mouse, UniProt Q9R0T8 1-717)
T2 construct: also called IKKi
T2 sequence (looked up): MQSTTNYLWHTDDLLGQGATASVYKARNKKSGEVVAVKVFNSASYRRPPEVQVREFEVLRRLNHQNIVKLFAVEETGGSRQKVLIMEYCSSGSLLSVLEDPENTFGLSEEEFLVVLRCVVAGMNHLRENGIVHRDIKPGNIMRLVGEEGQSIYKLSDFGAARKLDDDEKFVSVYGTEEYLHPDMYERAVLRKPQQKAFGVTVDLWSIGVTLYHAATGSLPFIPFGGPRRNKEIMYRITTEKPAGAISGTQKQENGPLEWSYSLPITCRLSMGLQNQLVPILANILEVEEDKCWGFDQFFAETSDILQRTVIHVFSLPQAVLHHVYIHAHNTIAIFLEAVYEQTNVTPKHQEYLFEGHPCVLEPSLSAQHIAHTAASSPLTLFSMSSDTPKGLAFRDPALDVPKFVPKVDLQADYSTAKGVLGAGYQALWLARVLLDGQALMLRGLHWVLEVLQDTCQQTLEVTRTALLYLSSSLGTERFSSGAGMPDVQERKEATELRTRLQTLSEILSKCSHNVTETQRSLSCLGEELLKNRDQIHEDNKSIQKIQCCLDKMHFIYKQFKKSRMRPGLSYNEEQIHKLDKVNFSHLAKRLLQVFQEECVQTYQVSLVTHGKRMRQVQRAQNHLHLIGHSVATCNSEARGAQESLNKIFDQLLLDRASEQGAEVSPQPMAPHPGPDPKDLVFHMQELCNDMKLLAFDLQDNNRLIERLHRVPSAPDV

T3: TRAF2, endogenous, mouse primary CD4+ T cells (mouse, UniProt P39429 2-501)
T3 sequence (looked up): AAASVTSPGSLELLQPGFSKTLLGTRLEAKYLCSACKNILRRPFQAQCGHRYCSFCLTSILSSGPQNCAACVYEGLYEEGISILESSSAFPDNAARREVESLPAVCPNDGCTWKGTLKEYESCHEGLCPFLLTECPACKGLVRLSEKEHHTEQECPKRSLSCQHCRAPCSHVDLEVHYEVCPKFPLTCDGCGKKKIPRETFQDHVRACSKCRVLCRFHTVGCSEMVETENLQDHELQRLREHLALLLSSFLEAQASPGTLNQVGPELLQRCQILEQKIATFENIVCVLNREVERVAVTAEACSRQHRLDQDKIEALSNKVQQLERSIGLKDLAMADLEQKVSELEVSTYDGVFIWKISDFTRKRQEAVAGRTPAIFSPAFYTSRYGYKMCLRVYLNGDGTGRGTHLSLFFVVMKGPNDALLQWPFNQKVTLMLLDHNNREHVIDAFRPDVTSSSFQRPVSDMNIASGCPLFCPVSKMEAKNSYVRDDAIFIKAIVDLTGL

T4: TRAF3, endogenous, mouse primary CD4+ T cells (mouse, UniProt Q60803 1-567)
T4 sequence (looked up): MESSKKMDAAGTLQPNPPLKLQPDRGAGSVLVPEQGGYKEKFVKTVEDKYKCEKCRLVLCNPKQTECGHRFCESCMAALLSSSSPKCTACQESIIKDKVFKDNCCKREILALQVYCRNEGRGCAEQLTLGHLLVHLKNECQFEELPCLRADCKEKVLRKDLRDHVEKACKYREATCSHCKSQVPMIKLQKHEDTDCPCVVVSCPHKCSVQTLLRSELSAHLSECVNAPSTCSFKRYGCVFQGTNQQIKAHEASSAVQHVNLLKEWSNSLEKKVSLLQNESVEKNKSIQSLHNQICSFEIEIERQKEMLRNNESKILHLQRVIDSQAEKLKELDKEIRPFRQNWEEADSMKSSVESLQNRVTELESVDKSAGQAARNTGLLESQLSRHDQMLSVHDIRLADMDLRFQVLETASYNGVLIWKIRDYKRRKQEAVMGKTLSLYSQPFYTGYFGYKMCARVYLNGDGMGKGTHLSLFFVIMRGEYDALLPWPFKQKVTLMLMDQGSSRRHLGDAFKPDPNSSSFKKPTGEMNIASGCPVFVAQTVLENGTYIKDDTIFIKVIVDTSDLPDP

T5: TANK-binding kinase 1 (TBK1), endogenous, human cell lines (Jurkat JTAg, HEK293T) (human, UniProt Q9UHD2 1-729)
T5 construct: Species follows from the human cell lines; also called endogenous TBK1
T5 sequence (looked up): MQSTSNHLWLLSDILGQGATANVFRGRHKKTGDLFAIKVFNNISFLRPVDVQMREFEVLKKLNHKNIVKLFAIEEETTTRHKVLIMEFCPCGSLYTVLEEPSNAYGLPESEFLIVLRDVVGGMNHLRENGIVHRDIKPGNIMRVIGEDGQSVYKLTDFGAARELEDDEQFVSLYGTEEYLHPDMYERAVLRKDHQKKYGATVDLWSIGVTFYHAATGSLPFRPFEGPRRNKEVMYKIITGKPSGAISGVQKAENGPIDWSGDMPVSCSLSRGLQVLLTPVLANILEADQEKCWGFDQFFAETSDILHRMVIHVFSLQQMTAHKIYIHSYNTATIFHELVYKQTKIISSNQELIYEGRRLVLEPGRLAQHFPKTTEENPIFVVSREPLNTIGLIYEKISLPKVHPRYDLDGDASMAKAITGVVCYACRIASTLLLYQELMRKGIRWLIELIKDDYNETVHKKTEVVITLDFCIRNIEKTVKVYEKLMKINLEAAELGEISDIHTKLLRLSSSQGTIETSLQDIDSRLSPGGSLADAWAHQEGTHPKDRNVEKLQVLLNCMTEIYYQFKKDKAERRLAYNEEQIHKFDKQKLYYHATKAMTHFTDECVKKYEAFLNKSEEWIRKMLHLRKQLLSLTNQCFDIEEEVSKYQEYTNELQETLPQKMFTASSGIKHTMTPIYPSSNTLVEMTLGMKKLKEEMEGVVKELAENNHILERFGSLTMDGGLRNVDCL


Columns and labels:
[1] = molecular target: T1, TANK-binding kinase 1 (TBK1), …; assay: co-IP (anti-ICOS IP, immunoblot), mouse primary CD4+ T cells (FIG. 2a)
From the text: IPs or whole cell lysates (WCL) were immunoblotted with the indicated Abs. 5% WCL was used as input to control for IP Western. […] Jurkat T cells transfected with WT ICOS, mIProx, YF or tailless (TL) ICOS plasmids were stimulated with anti-CD3 plus −ICOS mAbs prior to IP and immunoblotting. […] In vitro activated primary mouse CD4⁺ T cells were stimulated with anti-CD3 plus the indicated costimulatory mAbs, and IP or WCL were subjected to immunoblotting with the indicated Abs. Shown are representative of three experiments.
(§1) The human leukemic Jurkat T cell line, JTAg, was previously described (Li, J et al. J Immunol 2013, 191(1): 200-207; Rolf J et al., J Immunol 2010, 185(7): 4042-4052) and the HEK 293T cell line was obtained from ATCC. These cell lines have not been recently STR profiled but tested negative for mycoplasma contamination. JTAg cells in logarithmic growth phase were transfected with plasmid DNAs by electroporation and incubated for 24 hours.

[2] = molecular target: p85α, the regulatory subunit of PI3K, endogenous, mouse primary CD4+ T cells (mouse, UniProt P26450 2-724); assay: co-IP (anti-ICOS IP, immunoblot), mouse CD4+ T cells unstimulated or stimulated with anti-CD3, anti-ICOS or both (FIG. 6a)
Sequence of p85α, the regulatory subunit of PI3K, endogenous, mouse primary CD4+ T cells (P26450 2-724): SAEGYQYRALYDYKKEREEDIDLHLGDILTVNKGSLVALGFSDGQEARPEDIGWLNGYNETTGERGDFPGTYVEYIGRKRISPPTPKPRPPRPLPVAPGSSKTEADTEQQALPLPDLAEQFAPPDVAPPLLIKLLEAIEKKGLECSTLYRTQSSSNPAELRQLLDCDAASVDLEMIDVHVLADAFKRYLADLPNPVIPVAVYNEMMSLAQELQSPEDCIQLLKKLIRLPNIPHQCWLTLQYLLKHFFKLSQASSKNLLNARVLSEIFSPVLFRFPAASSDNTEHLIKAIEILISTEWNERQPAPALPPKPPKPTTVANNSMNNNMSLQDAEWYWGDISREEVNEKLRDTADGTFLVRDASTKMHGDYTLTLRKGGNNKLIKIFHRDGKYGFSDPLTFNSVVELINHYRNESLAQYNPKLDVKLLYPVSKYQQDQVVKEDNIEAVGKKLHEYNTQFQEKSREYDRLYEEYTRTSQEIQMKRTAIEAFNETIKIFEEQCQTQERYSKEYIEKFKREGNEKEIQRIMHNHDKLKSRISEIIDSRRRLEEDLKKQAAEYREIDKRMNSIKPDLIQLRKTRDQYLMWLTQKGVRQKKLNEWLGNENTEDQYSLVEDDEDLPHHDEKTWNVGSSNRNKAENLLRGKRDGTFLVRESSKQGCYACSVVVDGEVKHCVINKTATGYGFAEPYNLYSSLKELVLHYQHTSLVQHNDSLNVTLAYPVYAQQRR

[3] = molecular target: T2, IKKϵ, endogenous, mouse primary CD4+ T …; assay: anti-ICOS IP and immunoblot, mouse primary CD4+ T cells restimulated with anti-CD3 plus anti-ICOS (FIG. 14)
[4] = molecular target: T3, TRAF2, endogenous, mouse primary CD4+ T …; assay: as above
[5] = molecular target: TRAF5, endogenous, mouse primary CD4+ T cells (mouse, UniProt P70191 1-558); assay: as above
Sequence of TRAF5, endogenous, mouse primary CD4+ T cells (P70191 whole entry): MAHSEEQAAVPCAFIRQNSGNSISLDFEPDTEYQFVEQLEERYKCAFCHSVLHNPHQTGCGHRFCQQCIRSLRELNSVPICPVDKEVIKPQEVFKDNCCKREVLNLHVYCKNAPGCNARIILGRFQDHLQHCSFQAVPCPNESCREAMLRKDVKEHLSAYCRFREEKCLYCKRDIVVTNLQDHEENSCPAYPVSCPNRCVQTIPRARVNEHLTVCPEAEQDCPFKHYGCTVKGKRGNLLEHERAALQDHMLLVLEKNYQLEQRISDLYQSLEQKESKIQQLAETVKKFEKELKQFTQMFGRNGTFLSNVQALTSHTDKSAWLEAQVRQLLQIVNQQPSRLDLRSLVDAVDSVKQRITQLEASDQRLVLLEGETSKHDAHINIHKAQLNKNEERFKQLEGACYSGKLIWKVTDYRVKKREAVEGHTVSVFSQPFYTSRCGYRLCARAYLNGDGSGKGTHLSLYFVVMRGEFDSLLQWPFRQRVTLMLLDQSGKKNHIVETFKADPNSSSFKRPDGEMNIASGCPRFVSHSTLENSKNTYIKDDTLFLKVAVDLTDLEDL

[6] = molecular target: T4, TRAF3, endogenous, mouse primary CD4+ T …; assay: as above
[7] = molecular target: T5, TANK-binding kinase 1 (TBK1), …; assay: anti-FLAG IP and immunoblot, transfected HEK293T cells (FIG. 6e)
Experimental: Shown are representative of three experiments.
as §1

Row | Binder | binding result [1] | binding result [2] | binding result [3] | binding result [4] | binding result [5] | binding result [6] | binding result [7]
1 | ICOS, endogenous, of mouse primary CD4+ T cells (receptor) EINGSADHRMFSFHNGGVQISCKYPETVQQLKMRLFREREVLCELTKTKGSGNAVSIKNPMLCLYHLSNNSVSFFLNNPDSSQGSYYFCSLSIFDPPPFQERNLSGGYLHIYESQLCCQLKLWLPVGCAAFVVVLLFGCILIIWFSKKKYGSSVHDPNSEYMFMAAVNTNKKSRLAGVTS | binds | binds | no binding | no binding | no binding | no binding | 
2 | FLAG-tagged WT TRAF3 (other, Expressed in HEK293T cells; The position of the FLAG tag is unknown; not shown: FLAG tag) MESSKKMDSPGALQTNPPLKLHTDRSAGTPVFVPEQGGYKEKFVKTVEDKYKCEKCHLVLCSPKQTECGHRFCESCMAALLSSSSPKCTACQESIVKDKVFKDNCCKREILALQIYCRNESRGCAEQLMLGHLLVHLKNDCHFEELPCVRPDCKEKVLRKDLRDHVEKACKYREATCSHCKSQVPMIALQKHEDTDCPCVVVSCPHKCSVQTLLRSELSAHLSECVNAPSTCSFKRYGCVFQGTNQQIKAHEASSAVQHVNLLKEWSNSLEKKVSLLQNESVEKNKSIQSLHNQICSFEIEIERQKEMLRNNESKILHLQRVIDSQAEKLKELDKEIRPFRQNWEEADSMKSSVESLQNRVTELESVDKSAGQVARNTGLLESQLSRHDQMLSVHDIRLADMDLRFQVLETASYNGVLIWKIRDYKRRKQEAVMGKTLSLYSQPFYTGYFGYKMCARVYLNGDGMGKGTHLSLFFVIMRGEYDALLPWPFKQKVTLMLMDQGSSRRHLGDAFKPDPNSSSFKKPTGEMNIASGCPVFVAQTVLENGTYIKDDTIFIKVIVDTSDLPDP |  |  |  |  |  |  | binds
